Data reported in paper PMC12618784.

Tests used:
Porin, Q94920 [1] = biological target: T1, Porin, Q94920; test: pull-down (anti-HA immunoprecipitation) with mass spectrometry; details: chain shown with the change; 3rd instar larval muscle tissue (mef2-Gal4); four individual biological replicates; read off a plot
T1 chain: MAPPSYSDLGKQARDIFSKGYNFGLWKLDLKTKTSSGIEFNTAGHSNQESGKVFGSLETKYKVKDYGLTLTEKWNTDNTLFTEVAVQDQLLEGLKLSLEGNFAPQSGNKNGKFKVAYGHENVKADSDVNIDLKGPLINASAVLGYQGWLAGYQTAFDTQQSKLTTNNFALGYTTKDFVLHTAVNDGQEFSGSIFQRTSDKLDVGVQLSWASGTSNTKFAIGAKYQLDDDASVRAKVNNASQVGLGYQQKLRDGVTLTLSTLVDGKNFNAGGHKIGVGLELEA

Porin, Q94920 [2] = biological target: T1, Porin, Q94920; test: TurboID biotin proximity labelling with mass spectrometry; details: chain shown with the change; 3rd instar larval muscle tissue (mef2-Gal4); parent: 1
Mitofilin, P91928 = biological target: T2, Mitofilin, P91928; test: as above; details: chain shown with the change; 3rd instar larval muscle tissue (mef2-Gal4); parent: 1
T2 chain: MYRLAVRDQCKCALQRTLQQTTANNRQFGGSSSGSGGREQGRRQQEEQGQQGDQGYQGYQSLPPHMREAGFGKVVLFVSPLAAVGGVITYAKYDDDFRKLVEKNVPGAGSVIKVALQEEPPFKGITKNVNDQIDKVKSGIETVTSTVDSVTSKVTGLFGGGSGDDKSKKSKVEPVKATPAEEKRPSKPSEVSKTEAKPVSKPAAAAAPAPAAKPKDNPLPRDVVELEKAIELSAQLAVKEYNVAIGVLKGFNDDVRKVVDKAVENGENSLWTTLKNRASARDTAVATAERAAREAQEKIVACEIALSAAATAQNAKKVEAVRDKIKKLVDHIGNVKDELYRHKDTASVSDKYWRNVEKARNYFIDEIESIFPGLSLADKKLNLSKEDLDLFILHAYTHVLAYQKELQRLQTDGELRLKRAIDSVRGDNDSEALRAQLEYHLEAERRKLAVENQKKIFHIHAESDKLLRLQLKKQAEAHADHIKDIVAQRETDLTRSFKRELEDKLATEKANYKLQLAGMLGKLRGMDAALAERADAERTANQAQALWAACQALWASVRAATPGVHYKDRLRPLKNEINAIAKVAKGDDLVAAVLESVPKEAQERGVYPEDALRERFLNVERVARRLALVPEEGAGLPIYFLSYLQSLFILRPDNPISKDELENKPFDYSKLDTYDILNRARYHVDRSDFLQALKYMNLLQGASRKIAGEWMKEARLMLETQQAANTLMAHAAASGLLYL

[3] = biological target: T3, Sphingosine-1-phosphatase lyase (Sply), Q9V7Y2; test: as above; details: chain shown with the change; 3rd instar larval muscle tissue (mef2-Gal4); parent: 1
T3 chain: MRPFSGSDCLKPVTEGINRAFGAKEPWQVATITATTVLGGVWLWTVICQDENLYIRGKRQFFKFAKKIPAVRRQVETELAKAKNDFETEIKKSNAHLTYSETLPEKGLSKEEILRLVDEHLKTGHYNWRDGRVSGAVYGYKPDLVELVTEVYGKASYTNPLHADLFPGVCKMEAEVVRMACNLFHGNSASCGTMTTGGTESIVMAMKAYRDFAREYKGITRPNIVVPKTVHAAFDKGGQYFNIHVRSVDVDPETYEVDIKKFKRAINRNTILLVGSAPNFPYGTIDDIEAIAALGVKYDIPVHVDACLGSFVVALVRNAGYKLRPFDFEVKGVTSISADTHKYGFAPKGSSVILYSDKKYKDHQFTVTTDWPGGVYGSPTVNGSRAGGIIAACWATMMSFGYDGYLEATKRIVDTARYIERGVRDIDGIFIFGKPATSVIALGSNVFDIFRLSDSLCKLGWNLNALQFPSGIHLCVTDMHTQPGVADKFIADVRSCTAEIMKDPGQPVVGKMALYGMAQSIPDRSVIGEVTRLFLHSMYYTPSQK

SERCA, P22700 = test: as above; details: chain shown with the change; 3rd instar larval muscle tissue (mef2-Gal4); parent: 1
Sequence of SERCA, P22700 (P22700 whole entry, the tested form may be a part): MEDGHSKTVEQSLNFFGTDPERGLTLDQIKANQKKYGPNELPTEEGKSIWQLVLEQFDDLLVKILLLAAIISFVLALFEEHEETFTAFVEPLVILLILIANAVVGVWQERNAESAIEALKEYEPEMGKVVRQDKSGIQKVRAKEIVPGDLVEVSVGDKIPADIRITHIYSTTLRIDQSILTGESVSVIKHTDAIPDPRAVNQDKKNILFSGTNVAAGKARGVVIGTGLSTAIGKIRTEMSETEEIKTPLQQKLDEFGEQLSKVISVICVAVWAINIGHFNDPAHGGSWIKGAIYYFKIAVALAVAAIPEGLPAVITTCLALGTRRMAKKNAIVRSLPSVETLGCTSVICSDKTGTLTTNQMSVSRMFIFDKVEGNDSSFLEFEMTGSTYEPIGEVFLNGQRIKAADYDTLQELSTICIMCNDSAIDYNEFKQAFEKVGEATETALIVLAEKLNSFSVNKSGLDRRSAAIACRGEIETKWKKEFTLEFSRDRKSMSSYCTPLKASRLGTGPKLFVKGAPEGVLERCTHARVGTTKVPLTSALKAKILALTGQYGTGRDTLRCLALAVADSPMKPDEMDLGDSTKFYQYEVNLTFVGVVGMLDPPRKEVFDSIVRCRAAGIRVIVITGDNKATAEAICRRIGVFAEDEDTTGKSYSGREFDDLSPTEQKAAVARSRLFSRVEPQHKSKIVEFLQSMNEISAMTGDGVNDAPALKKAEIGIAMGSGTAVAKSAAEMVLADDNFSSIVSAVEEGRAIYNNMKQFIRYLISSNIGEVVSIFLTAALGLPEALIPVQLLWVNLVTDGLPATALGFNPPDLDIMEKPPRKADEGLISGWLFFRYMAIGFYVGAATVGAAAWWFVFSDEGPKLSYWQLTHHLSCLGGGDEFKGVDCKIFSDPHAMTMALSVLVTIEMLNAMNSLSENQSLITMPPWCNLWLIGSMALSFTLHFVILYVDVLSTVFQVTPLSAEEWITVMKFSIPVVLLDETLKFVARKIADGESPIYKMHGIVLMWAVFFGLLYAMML
Porin::HA, Q94920 = biological target: T4, Porin::HA, Q94920; test: co-immunoprecipitation (anti-GFP beads), quantified blot; details: chain shown with the change; transfected Sf21 cells; values normalised to the corresponding amounts of precipitated Dmel\Tmem43; parent: est. 0.75; read off a plot
T4 chain: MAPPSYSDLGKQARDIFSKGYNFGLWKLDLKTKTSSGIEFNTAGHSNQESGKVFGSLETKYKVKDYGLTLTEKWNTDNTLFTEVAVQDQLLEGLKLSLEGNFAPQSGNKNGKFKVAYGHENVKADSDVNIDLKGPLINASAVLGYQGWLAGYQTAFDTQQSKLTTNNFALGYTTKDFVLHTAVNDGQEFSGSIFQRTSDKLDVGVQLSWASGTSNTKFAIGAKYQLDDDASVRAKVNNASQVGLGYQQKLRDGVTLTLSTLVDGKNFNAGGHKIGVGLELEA

B1: Dmel\Tmem43wt::HA, Q9VSB9 p.S333L (protein)
chain: MASLSETLRSHWPIALFGVILFVAGGTELYWNEGRAVHNMMALDEAHADIYSVRFTEEEQEVGLEGRIVHLSGPILVGEPLTEPDYNIQLLAVKLRRRVQMYQWVEEAVEHNYGDSVGTTHSDSRTYYYTREWRDKIVDSRNFYNRHGHTNPSHFPIESHVQVADAVFIGRYELGAEVKEKFNNYQELTSDIRPEDSGVKLHLGIYYHTNDVFNPEVGDLRLLFSFAGMEGEVFSVVGKLSGNKLVPYITSRGVPVLLVYPGGLSVQEVFRLEARAQVLHTWWWRFVGWLLIFFGVTCNTKILRLLFVRVPLLVALAPDPQFPVTGNLLIAFLLALTIAAVAWILHRPVIGACLLLAGASPYVWFTRNLVDYHRLD
Binder B1 has a ratio to parent (Porin, Q94920 [1]) of 0.4.

B2: Dmel\Tmem43wt::TurboID, Q9VSB9 p.S333L (protein)
chain: MASLSETLRSHWPIALFGVILFVAGGTELYWNEGRAVHNMMALDEAHADIYSVRFTEEEQEVGLEGRIVHLSGPILVGEPLTEPDYNIQLLAVKLRRRVQMYQWVEEAVEHNYGDSVGTTHSDSRTYYYTREWRDKIVDSRNFYNRHGHTNPSHFPIESHVQVADAVFIGRYELGAEVKEKFNNYQELTSDIRPEDSGVKLHLGIYYHTNDVFNPEVGDLRLLFSFAGMEGEVFSVVGKLSGNKLVPYITSRGVPVLLVYPGGLSVQEVFRLEARAQVLHTWWWRFVGWLLIFFGVTCNTKILRLLFVRVPLLVALAPDPQFPVTGNLLIAFLLALTIAAVAWILHRPVIGACLLLAGASPYVWFTRNLVDYHRLD
With B2 the ratio to parent (Porin, Q94920 [2]) was 0.13, the ratio to parent (Mitofilin, P91928) was 0.17 and the ratio to parent [3] was 0.23. It also gave a ratio to parent (SERCA, P22700) of 0.17.

B3: Dmel\Tmem43wt::GFP, Q9VSB9 p.S333L (protein)
chain: MASLSETLRSHWPIALFGVILFVAGGTELYWNEGRAVHNMMALDEAHADIYSVRFTEEEQEVGLEGRIVHLSGPILVGEPLTEPDYNIQLLAVKLRRRVQMYQWVEEAVEHNYGDSVGTTHSDSRTYYYTREWRDKIVDSRNFYNRHGHTNPSHFPIESHVQVADAVFIGRYELGAEVKEKFNNYQELTSDIRPEDSGVKLHLGIYYHTNDVFNPEVGDLRLLFSFAGMEGEVFSVVGKLSGNKLVPYITSRGVPVLLVYPGGLSVQEVFRLEARAQVLHTWWWRFVGWLLIFFGVTCNTKILRLLFVRVPLLVALAPDPQFPVTGNLLIAFLLALTIAAVAWILHRPVIGACLLLAGASPYVWFTRNLVDYHRLD
For B3, the response (Porin::HA, Q94920) was 0.05.
